Results published in PMC9982451.

Target: T1, SBDMmo (sulfur binding domain of Type IV REase MmoMcrA) (Morganella morganii)
T1 chain: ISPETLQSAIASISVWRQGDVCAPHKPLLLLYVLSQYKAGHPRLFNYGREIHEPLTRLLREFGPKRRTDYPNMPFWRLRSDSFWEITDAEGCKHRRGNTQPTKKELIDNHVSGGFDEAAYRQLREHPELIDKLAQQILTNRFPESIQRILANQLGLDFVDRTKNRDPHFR
Assay: EMSA

B1: PT-dsDNA GGCC-10F/10R (dsDNA)
DNA 1: GTCGGCCCCA
DNA 2: TGGGGCCGAC
modifications: phosphorothioate between G4 and G5 of strand 1 (hemi-PT; stereochemistry not stated)
- binding result: binds

Binder: GTCGGCCCCA (ssDNA, phosphorothioate between G4 and G5 (stereochemistry not stated)) [PT-ssDNA GGCC-10F]
- binding result: no binding
